Reference: doi:10.1101/2021.10.29.466502 (bioRxiv, 2021)

T1: thrombopoietin receptor MPL on Ba/F3-HuMpl cells (human, UniProt P40238 26-635, N-glycans (consensus sites N117, N178, N298, N358))
T1 sequence: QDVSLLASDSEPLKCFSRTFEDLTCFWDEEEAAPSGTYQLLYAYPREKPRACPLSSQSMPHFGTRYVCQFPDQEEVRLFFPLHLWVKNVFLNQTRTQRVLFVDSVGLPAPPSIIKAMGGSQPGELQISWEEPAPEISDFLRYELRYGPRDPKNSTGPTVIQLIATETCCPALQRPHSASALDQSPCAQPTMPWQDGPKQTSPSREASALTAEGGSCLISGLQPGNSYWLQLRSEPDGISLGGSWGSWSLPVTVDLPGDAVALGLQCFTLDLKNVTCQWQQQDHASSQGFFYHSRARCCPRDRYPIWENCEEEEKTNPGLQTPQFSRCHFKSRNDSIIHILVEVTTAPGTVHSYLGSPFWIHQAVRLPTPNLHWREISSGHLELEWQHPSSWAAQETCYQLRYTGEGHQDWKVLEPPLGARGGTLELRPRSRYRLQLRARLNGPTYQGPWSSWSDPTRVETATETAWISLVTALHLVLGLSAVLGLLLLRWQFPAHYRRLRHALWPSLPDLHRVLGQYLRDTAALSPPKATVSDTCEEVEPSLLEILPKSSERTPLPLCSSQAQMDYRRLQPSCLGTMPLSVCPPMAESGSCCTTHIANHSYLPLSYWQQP


Experiments:
[1] = target: thrombopoietin receptor MPL on Ba/F3-HuMpl cells (human) (UniProt P40238)
[2] = target: T1, thrombopoietin receptor MPL on …; assay: cell-based or functional assay

Molecule | proliferation of Ba/F3-HuMpl cells, EC50 [1] | proliferation of Ba/F3-HuMpl cells, EC50 [2]
PA-IIL (from UniProt Q9HYN5 1-115) (natural protein) | 17.5 µg/mL | 
N-terminal His-tagged recombinant ThC (rThC) (natural protein) TACTTGPQTISFPAGLIVSLNASVQSSRNESVEVKDSNGNTVSRGSGSSSSGGTFTVINMEPPTFISDGNDYTVELSPQATPGILQTESSRVDNGRLIWQNYAFGANDGGCIVGDRDFNDVFVLITGLVRG |  | 0.26 µg/mL
